Experiment: soluble on expression in E. coli; label from the status in PepcDB or PDB records

Sequence | soluble on expression in E. coli
EAAYSHTPLIMVSADRPERLHGTGANQTIEQRGIFNVVDTDHVVDITDLNSISFARNVIHINVALDVPLVDVLPEVGDPVERVREVIEVDHGEVVLNLNERILVVAGDEAWEVPGLEDVPTIAEPSAPAPYHPVHPLAAQIFAHKEIKPEHIVVVGHPTLHRAVLSLLADVPVTVLTKTDTITGNPQAVGSRVKVTGELDKRWLQICEDASTLCADRVKEVLEGH | not soluble
EDKTITTLYVGGLGDTITETDLRNHFYQFGEIRTITVVQRQQCAFIQFATRQAAEVAAEKSFNKLIVNGRRLNVKWGR | soluble
EETLLNTKLETADLKWVTFPQVDGQWEELSGLDEEQHSVRTYEVCDVQRAPGQAHWLRTGWVPRRGAVHVYATLRFTMLECLSLPRAGRSCKETFTVFYYESDADTATALTPAWMENPYIKVDTVAAEHLTRKRPGAEATGKVNVKTLRLGPLSKAGFYLAFQDQGACMALLSLHLFYKK | soluble
EFKHILVGVDDSDDAQLAFRYAINRAKSDGAKLTIVSILEQDNMNVYEAMSKDFVHGQRKDLEEHVQQYQKLARDFGVTDVNAVVDEGDPGETIVKTVIPALKPDLLVIGSVAKHGVRKYFGSQAAYMAKHAPISVLVIR | not soluble
EFSSEELIRMSNYLNELLVGVPVGQVRTRILEEMRNEKVLYDKLLARALQLSEQSLNDDGAQIFIEGQTNILEQPEFADSRRMRDLFRAFEEKNQLVGLLDRCLNAQGVQIFIGAETHLSQMEGLSIITSTYLTGKNTLGVLGVIGPTRMGYAKVIPIVDYTAKLVSRLLEG | not soluble
EGAALTEKTDIFESGRNGKPNKDGIKSYRIPALLKTDKGTLIAGADERRLHSSDWGDIGMVIRRSEDNGKTWGDRVTITNLRDNPKASDPSIGSPVNIDMVLVQDPETKRIFSIYDMFPEGKGIFGMSSQKEEAYKKIDGKTYQILYREGEKGAYTIRENGTVYTPDGKATDYRVVVDPVKPAYSDKGDLYKGNQLLGNIYFTTNKTSPFRIAKDSYLWMSYSDDDGKTWSAPQDITPMVKADWMKFLGVGPGTGIVLRNGPHKGRILIPVYTTNNVSHLNGSQSSRIIYSDDHGKTWHAGEAVNDNRQVDGQKIHSSTMNNRRAQNTESTVVQLNNGDVKLFMRGLTGDLQVATSKDGGVTWEKDIKRYPQVKDVYVQMSAIHTMHEGKEYIILSNAGGPKRENGMVHLARVEENGELTWLKHNPIQKGEFAYNSLQELGNGEYGILYEHTEKGQNAYTLSFRKFNWDFLSKDLISPTEAKVKRTREMGKGVIGLEFDSEVLV | soluble
EGGDFVVGMVTDSGDIDDKSFNQQVWEGISRFAQENNAKCKYVTASTDAEYVPSLSAFADENMGLVVACGSFLVEAVIETSARFPKQKFLVIDAVVQDRDNVVSAVFGQNEGSFLVGVAAALKAKEAGKSAVGFIVGMELGMMPLFEAGFEAGVKAVDPDIQVVVEVANTFSDPQKGQALAAKLYDSGVNVIFQVAGGTGNGVIKEARDRRLNGQDVWVIGVDRDQYMDGVYDGSKSVVLTSMVKRADVAAERISKMAYDGSFPGGQSIMFGLEDKAVGIPEENPNLSSAVMEKIRSFEEKIVSKEIVVPVRSARMMN | soluble
EHVEMLSAAGATVVAFDPLSEQLPQCDGLIIPGGFPEEHCDVLEQRADLKQQVCDVIAQGIPVHAECAGLLWLLSTLDGRPMLDVIPTHGAMGRRLTLGYRDAVVVHDSVIYRAGERVTGHEFHHTAIADSVVPGWDSAWGWRAWDGSPKVEGFVSGNVHASYLHVHPAAVPAAVRRFVEACAR | not soluble
EKKEQKEKEKKEQEIKKKFKLTGPIQVIHLAKACCDVKGGKNELSFKQGEQIEIIRITDNPEGKWLGRTARGSYGYIKTTAVEIDYDSLKLKKDLE | soluble
ELPKKRELCKFYITGFCARAENCPYMHGDFPCKLYHTTGNCINGDDCMFSHDPLTEETRELLDKMLADDAEAGAEDEKEVEELKK | soluble
ELVMTQSPKFMSTSVGDRVSVTCKASQNVGTHVAWYQQKPGQSPKTLIYSASYRYSGVPDRFTGSGSGTDFTLTIRDVQSEDAAEYFCQQYNLFPVTFGGGTKLEIKRTVAAPSVFIFPPSDEQLKSGTASVVCLLNNFYPREAAVAWKVDNALQSGNSQESVTEQDSADSTYSLSSTLTLSKADYEKHKVYACEVTHQGLSSPVTKSFNRGE | soluble
EMETYVNKLHEGSTYTAAVQYNVLEKDDDPASLTIWVPMFQSSMPADLLIKELANVNILVKQISTPKGPSLRVMINSRSAVLAQMPSKFTICANVSLDDRSKLAYDVTTPCEIKACSLTCLKSKNMLTTVKDLTMKTLNPTHDIIALCEFENIVTSKKVIIPTYLRSISVRNKDLNTLENITTTEFKNAITNAKIIPYSGLLLVITVTDNKGAFKYIKPQSQFIVDLGAYLEKESIYYVTTNWKHTATRFAIKPRED | soluble
ENEIERPEDMRVRTLANKSKMKVSIVQQIDRKVALDDIAVSHGLDFPELLSEVETIVYSGTRINIDYFINEVMDEDHLEDIFEYFKESTTDSLEEAMQELGKDYSEEEIRLVRIKFLSEMAN | soluble
ENLKLGFLVAQPEEPASQTQWKFADKAGKDLGFEVIKIAVPDGEKTLNAIDSLAASGAKGFVISTPDPKLGSAIVAKARGYDMKVIAVDNQFVNAKGKPMDTVPLVMEAATKIGERQGQELYKEMQKRGWDVKESAVMAITANELDTARRRTTGSMDALKAAGFPEKQIYQVPTKSEDIPGAFDAANSMLVQHPEVKHWLIVGMNDSTVLGGVRATEGQGFKAADIIGIGINGVDAVSELSKAQATGFYGSLLPSPDVHGYKSSEMLYNWVAKDVEPPKFTEVTDVVLITRDNFKEECEKKGLGGK | soluble
ENVYGYLMKYTNLVTGWQYRFFVLNNEAGLLEYFVNEQSRNQKPRGTLQLAGAVISPSDEDSHTFTVNAASGEQYKLRATDAKERQHWVSRLQICTQHHTEAIGKNN | soluble
ERVPKTVDVETIRSRIAQIDGVGGVHDVHVWSIDGQQDIATVHVVVDENVNVKDCTTLDRIQKVFHDAGIDHVTVQLEHDTHMSHELPCQH | soluble
EVKVEESGGGLVQPGGSMKLSCVASGFTFSNYWMEWVRQSPEKGLEWVAEIRLKSNNYATHYAESVKGRFTISRDDSKSSVYLQMNNLRAEDTGIYYCTRGGAVGAMDYWGQGTSVTVSSATTTAPSVYPLVPGCSDTSGSSVTLGCLVKGYFPEPVTVKWNYGALSSGVRTVSSVLQSGFYSLSSLVTVPSSTWPSQTVICNVAHPASKVDLIKEPSGP | soluble
EVQLQESGPGLVKPYQSLSLSCTVTGYSITSDYAWNWIRQFPGNKLEWMGYITYSGTTDYNPSLKSRISITRDTSKNQFFLQLNSVTTEDTATYYCARYYYGYWYFDVWGQGTTLTVSSAKTTAPSVYPLAPVSSVTLGCLVKGYFPEPVTLTWNSGSLSSGVHTFPAVLQSDLYTLSSSVTVTSSTWPSQSITCNVAHPASSTKVDKKIEPR | soluble
EVQLQESGPSLVKPSQTLSLTCSVTGDSVTSDFWSWIRKFPGNKLEYMGYISYSGSTYYHPSLKSRISITRDTSKNQYYLQLNSVTTEDTATYYCASWGGDVWGAGTTVTVSSAKTTAPSVYPLAPVCGDTTGSSVTLGCLVKGYFPEPVTLTWNSGSLSSGVHTFPAVLQSDLYTLSSSVTVTSSTWPSQSITCNVAHPASSTKVDKKI | soluble
EVQLQQSGPELVKPGTSVKMSCKASGYTFTDYYMKWVKHSHGKSLEWIGDINPSNGGTLYNQKFKGKATLTVDKSSSTASMQLSRLTSEDSAVYYCSRGDGIHGGFAYWGQGTTVTVSSAKTTAPSVYPLAPVCGDTTGSSVTLGCLVKGYFPEPVTLTWNSGSLSSGVHTFPAVLQSDLYTLSSSVTVTSSTWPSQSITCNVAHPASSTKVDKKIVPQV | soluble
EYKPKKGLASCWLSSKSHTLLNEEDFFTKDERIGIRKDYEGATNDDAFFCQRYYRFKNFKEVEGEKTKVCKQPPVREHDFCFAVLLETHRDIKHEELNKRIVYLGGERQPFLMDLMEVSEETFKLNIESSTLTSDEKHYTVVLLSDAMIEPKLLEGVKFASTEVKDFACLLTHVGTRRFYNKKKKREEQNIEEVETALSHQHELYARGSVFYFDTKEQANQFCEDLEKVPNFHTIGYNHAIIIEPTKTKK | not soluble
FDGNLKRYLKSEPIPESNDGPVKVVVAENFDEIVNNENKDVLIEFYAPWCGHCKNLEPKYKELGEKLSKDPNIVIAKMDATANDVPSPYEVRGFPTIYFSPANKKLNPKKYEGGRELSDFISYLQREAT | soluble
FECGVNSLDEWLKRRALANQHSGASRTFVVADHDSRVYGYYAMAAGAVSHQAATSGVRRNMPDPVPVMVLARLAVDQRAQGIKLGAALLQDAVNRVVNVSHNVGVRALLVHALDDRAKQFYAHYGFKESPQHPM | not soluble
FEPDDVTEDVIEWVYSTFDGSYDEQPFGGDWTDPEPFRWPVTRRQAVQALDHFVTNRLTEFGSYQDAMLEDEWAMSHSLLSTSLNLGLLGPAEVIERAITAYEDGDAPLNSVEGFIRQVLGWREFLRHVYRREM | not soluble
FIKLITSAKKRVWIQTPYLVPDDSVLAALKVAAASGVDVKIMIPDKPDHPFIYRATQYYGRLLMKENIEILIYNGGFLHAKTMIMDDEVCTVGSANQDIRSYKLNFEANAVLYDKKIIDQLEAIFLEDRKKCTTMTPEVVRDM | not soluble
FLHAIIPVHRPLRVGVLTQPVHAEISVADPMLAAVDAAASALSQAGHQLVEVQRPYGDAPFAAFSDILALRSAKIHGQASPLVSWLRDRGGRIGGRRKAKAIAEFLSVRAQLLAAWDVD | not soluble
FNKDGKFKIVQFTDVHFKYGNPASDVALERIGEVLDAEHPDLVIFTGDVVYSSPADKGMLQVLGQVERRHLPFVVTFGNHDNEQGKTRAELYDLIRGVAGNLLPDRGASPSPDYILTMKSSADASKDAALLYCMDSHSYSSLKDVDGYAWLTFGQVSWYRAQSAAYTARNGGKPYPALAFFHIPLPEYNEAAANENAILRGTRMEKACAPQLNTGMFAAMKEAGDVMGVFVGHDHDNDYAVMWKNILLAYGRFTGGNTEYNHLPNGARVIVLNEGTRTFETWIRQKGGVVDSTSYPSDYVKDDWRKR | not soluble
FNQTYQFTGLLNPDGTVIEANDAALDFGGLDRDEIVGKHFADIPWWSHSDTERDNVRDALERAASGEFVRYETEVRGVDGLGTIDFSVKPVTDQDENVTLLVVEGRDIT | not soluble
FNRGGYNFGKSVRHVVDAIGSVAGIRGILKSIR | soluble
FPAISEHFTEDYSSHTEQMLDLVLDSTDMRIEDGKRINPAFMFAAMLWYPLCALADKLMDQHNLCHYDAIMEASNIILDDQVRTIAIPRRHTATIREIWQLQLRLPRRNGKRAFRLMELNKFRAGFDFLEMRGEIEGGDTLKLAKWWETFQNAGREMRQAMAADLDGQAPKSGQRRRKTFRKKKSKPKS | not soluble

Reference: the DeepSol protein solubility set
